# In US20230227584A1 (published 2023):
# T1: human OX40 on the cell surface (activated human T cells; HeLa_hOx40_NFkB_Luc1 reporter cells) (human, UniProt P43489 29-277)
# T1 sequence: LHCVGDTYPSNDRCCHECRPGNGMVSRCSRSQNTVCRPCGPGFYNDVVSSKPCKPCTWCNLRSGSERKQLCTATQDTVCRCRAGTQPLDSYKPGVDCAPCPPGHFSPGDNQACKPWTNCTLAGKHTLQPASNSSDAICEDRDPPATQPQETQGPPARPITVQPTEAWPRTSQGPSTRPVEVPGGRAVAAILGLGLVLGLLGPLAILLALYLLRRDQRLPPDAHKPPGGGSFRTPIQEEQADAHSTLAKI
# How the values were obtained:
# [1] = target: T1, human OX40 on the cell surface …; assay: cell-based or functional assay
# [2] = target: T2, human fibroblast activation protein (huFAP) on NIH/3T3-huFAP clone 19 cells (human, UniProt Q12884 1-760); assay: flow cytometry, NIH/3T3-huFAP clone 19 cells
# T2 construct: Mouse NIH/3T3 fibroblasts transfected with vector pETR4921 to express huFAP; also called cell surface FAP
# Method: In another experiment, a mixture of 2 × 10⁵ NIH/3T3-huFAP clone 19 cells and HeLa cells in FACS buffer were added to each well of a round-bottom 96-well plates (TPP, Cat. No. 92097) and the binding assay was performed. Cells were first stained 20 min with LIVE/DEAD™ Fixable Aqua Dead Cell Stain (Molecular probes, Cat.No. L34957) in DPBS, followed after one washing step with 200 µL 4° C. […] Afterwards the cells were washed once with 200 µL FACS buffer at 4° C. and resuspended by a short vortex. Cells were further stained with 50 µL/well of 4° C. cold secondary antibody solution containing Phycoerythrin (PE)-conjugated AffiniPure anti-human IgG Fcy-fragment-specific goat IgG F(ab′)2 fragment (Jackson ImmunoResearch, Cat. No. 109-116-098) and incubated for 30 minutes at 4° C. in the dark. Samples were finally resuspended in 100 µL/well FACS-buffer and acquired the same day using with BD Fortessa running FACS Diva software.
# [3] = target: T1, human OX40 on the cell surface …; assay: cell-based or functional assay; remark: listed apart in the source
# [4] = target: T1, human OX40 on the cell surface …; assay: cell-based or functional assay; remark: listed apart in the source
# [5] = target: T1, human OX40 on the cell surface …; assay: cell-based or functional assay; remark: listed apart in the source
# [6] = target: T3, FcRn (biotinylated, coupled to streptavidin-sepharose); assay: FcRn affinity chromatography; retention compared to protein standards with known affinities
# T3 construct: also called neonatal Fc receptor
# Method: For coupling, the prepared receptor was added to streptavidin-sepharose (GE Healthcare). The resulting FcRn-sepharose matrix was packed in a column housing. The column was equilibrated with 20 mM 2-(N-morpholine)-ethanesulfonic acid (MES) and 140 mM NaCl, pH 5.5 (eluent A) at a 0.5 ml/min flow rate. 30 µg of antibody samples were diluted at a volume ratio of 1: 1 with eluent A and applied to the FcRn column. The column was washed with 5 column volumes of eluent A followed by elution with a linear gradient from 20 to 100% 20 mM Tris/HCl and 140 mM NaCl, pH 8.8 (eluent B) in 35 column volumes. The analysis was performed with a column oven at 25° C. The elution profile was monitored by continuous measurement of the absorbance at 280 nm. Retention times were compared to protein standards with known affinities.
# [7] = target: T1, human OX40 on the cell surface …; assay: flow cytometry, activated human PBMC gated on CD4+ T cells
EC50 of increased TCB mediated cytokine secretion following FAP-OX40 costimulation of primary human PBMCs [1] [nM],EC50 [2] [nM],"EC50 of NFκB activation (luciferase), HeLa_hOx40_NFkB_Luc1, w/ hu FAP [3] [nM]","EC50 of NFκB activation (luciferase), HeLa_hOx40_NFkB_Luc1, w/o [3] [nM]","EC50 of suppression of FoxP3 induction (FoxP3 MFI) on TGFβ-exposed CD4 T cells, FAP-coated beads [4] [nM]","EC50 of CD25 upregulation on CD4+ T cells, suboptimal TCR stimulation of human PBMC with NIH/3T3-huFAP cells [5] [nM]",FcRn affinity [6],EC50 [7] [nM],Binder
0.058,1.71,0.2,0.8,0.25,0.003,-0.1,1.47,"P1AF6455 OX40(CLC563) x FAP(1G1a_EPKSCS) 3+1 (bispecific antibody, human IgG1, kappa, L234A L235A, Human IgG1 Fc, knob-into-hole, PGLALA; also called CLC-563, S-variant 3+1) heavy 1: not shown heavy 2: not shown light 1: not shown light 2: EIVLTQSPATLSLSPGERATLSCRASESVDNYGLSFINWFQQKPGQAPRLLIYGTSNRGSGIPARFSGSGSGTDFTLTISSLEPEDFAVYFCQQSNEVPYTFGGGTKVEIKSSASTKGPSVFPLAPSSKSTSGGTAALGCLVKDYFPEPVTVSWNSGALTSGVHTFPAVLQSSGLYSLSSVVTVPSSSLGTQTYICNVNHKPSNTKVDKKVEPKSCS"
0.144,1.22,0.2,1.9,0.11,0.001,-0.1,1.64,"P1AF6454 OX40 (CLC563) x FAP (1G1a_EPKSCD) (3+1) C-terminal crossfab fusion (bispecific antibody, human IgG1, kappa, L234A L235A, 3+1 format; Human IgG1 Fc, knob-into-hole, PGLALA; VL-CH1 chain ends in EPKSCD; also called CLC-563, D-variant 3+1; 3+1 CLC563/H212-D) heavy 1: not shown heavy 2: not shown light 1: not shown light 2: EIVLTQSPATLSLSPGERATLSCRASESVDNYGLSFINWFQQKPGQAPRLLIYGTSNRGSGIPARFSGSGSGTDFTLTISSLEPEDFAVYFCQQSNEVPYTFGGGTKVEIKSSASTKGPSVFPLAPSSKSTSGGTAALGCLVKDYFPEPVTVSWNSGALTSGVHTFPAVLQSSGLYSLSSVVTVPSSSLGTQTYICNVNHKPSNTKVDKKVEPKSCD"
